Laboratory results from patent publication US20120316071A1 (published 2012).

Assays:
[1] = target: T1, Recombinant Human DLL4 (R&D Systems Cat#1506-D4/CF) (human, UniProt Q9NR61 27-524); experiment: ELISA on coated DLL4, 100 nM Fab
T1 construct: Bought recombinant human DLL4; also called delta-like protein 4; rHuman DLL4

[2] = target: T1, Recombinant Human DLL4 (R&D Systems …); experiment: ECL (MSD) binding assay, immobilised DLL4, 10 nM Fab;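 also: fab binding read as electrochemiluminescence via a TAG-labelled detection antibody, 1 h incubations at 20 °C, antigen signal compared with each well's blank, ratio of at least 4 scored as binder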
[3] = target: T2, Recombinant Human DLL4 (delta-like protein 4) (human, UniProt Q9NR61 27-524); experiment: ELISA on coated DLL4, Fab at 50 nM (2-fold serial dilution)
T2 construct: also called rHuman DLL4; Delta-like 4

[4] = target: T2, Recombinant Human DLL4 (delta-like …); experiment: ELISA on coated DLL4, Fab at 12.5 nM (2-fold serial dilution)
[5] = target: T2, Recombinant Human DLL4 (delta-like …); experiment: ELISA on coated DLL4, Fab at 6.25 nM (2-fold serial dilution)
[6] = target: T2, Recombinant Human DLL4 (delta-like …); experiment: ELISA on coated DLL4, Fab at 25 nM (2-fold serial dilution)
[7] = target: T2, Recombinant Human DLL4 (delta-like …); experiment: ELISA on coated DLL4, Fab at 3.125 nM (2-fold serial dilution)
[8] = target: T2, Recombinant Human DLL4 (delta-like …); experiment: ELISA on coated DLL4, Fab at 100 nM (2-fold serial dilution)

Row | Binder | ELISA Signal [100 nM Fab] [1] | ECL Signal [10 nM Fab] [2] | ELISA signal [3] | ELISA signal [4] | ELISA signal [5] | ELISA signal [6] | ELISA signal [7] | ELISA signal [8]
1 | Fab VH5-51_IGHD5-18*01>3_IGHJ4*01 G100K/G104T (H:KT) & V3-4_IGLJ1*01 S96M (Fab, V domains shown, Fab format: CH1 with His6 and Flag tags, and lambda CL, from the vectors; also called G100K/G104T & S96M) VH: EVQLVQSGAEVKKPGESLKISCKGSGYSFTSYWIGWVRQMPGKGLEWMGIIYPGDSDTRYSPSFQGQVTISADKSISTAYLQWSSLKASDTAMYYCARRKYSYTYDYFDYWGQGTLVTVSS VL: QTVVTQEPSFSVSPGGTVTLTCGLSSGSVSTSYYPSWYQQTPGQAPRTLIYSTNTRSSGVPDRFSGSILGNKAALTITGAQADDESDYYCVLYMGMGISYVFGTGTKVTVL | 0.02 | 61700 | – | – | – | – | – | –
2 | Fab VH5-51_IGHD5-18*01>3_IGHJ4*01 G100K/G104T (H:KT) & V3-4_IGLJ1*01 (Fab, V domains shown, Fab format: CH1 with His6 and Flag tags, and lambda CL, from the vectors; also called KT double mutant; H:KT & L:wt) VH: EVQLVQSGAEVKKPGESLKISCKGSGYSFTSYWIGWVRQMPGKGLEWMGIIYPGDSDTRYSPSFQGQVTISADKSISTAYLQWSSLKASDTAMYYCARRKYSYTYDYFDYWGQGTLVTVSS VL: QTVVTQEPSFSVSPGGTVTLTCGLSSGSVSTSYYPSWYQQTPGQAPRTLIYSTNTRSSGVPDRFSGSILGNKAALTITGAQADDESDYYCVLYMGSGISYVFGTGTKVTVL | 0.01 | 36600 | – | – | – | – | – | –
3 | Fab VH5-51_IGHD5-18*01>3_IGHJ4*01 G100K/G104T (KT) & V3-4_IGLJ1*01 S52G (Fab, V domains shown, Fab; also called H:KT & L:S52G) VH: EVQLVQSGAEVKKPGESLKISCKGSGYSFTSYWIGWVRQMPGKGLEWMGIIYPGDSDTRYSPSFQGQVTISADKSISTAYLQWSSLKASDTAMYYCARRKYSYTYDYFDYWGQGTLVTVSS VL: QTVVTQEPSFSVSPGGTVTLTCGLSSGSVSTSYYPSWYQQTPGQAPRTLIYGTNTRSSGVPDRFSGSILGNKAALTITGAQADDESDYYCVLYMGSGISYVFGTGTKVTVL | – | – | 0.194 | 0.215 | 0.207 | 0.227 | 0.216 | 0.209
4 | Fab VH5-51_IGHD5-18*01>3_IGHJ4*01 G100K/G104T (H:KT) & V3-4_IGLJ1*01 S96L (Fab, V domains shown, Fab format: CH1 with His6 and Flag tags, and lambda CL, from the vectors; also called G100K/G104T & S96L) VH: EVQLVQSGAEVKKPGESLKISCKGSGYSFTSYWIGWVRQMPGKGLEWMGIIYPGDSDTRYSPSFQGQVTISADKSISTAYLQWSSLKASDTAMYYCARRKYSYTYDYFDYWGQGTLVTVSS VL: QTVVTQEPSFSVSPGGTVTLTCGLSSGSVSTSYYPSWYQQTPGQAPRTLIYSTNTRSSGVPDRFSGSILGNKAALTITGAQADDESDYYCVLYMGLGISYVFGTGTKVTVL | 0.02 | 40000 | – | – | – | – | – | –
5 | Fab VH5-51_IGHD5-18*01>3_IGHJ4*01 G100K/G104T (KT) & V3-4_IGLJ1*01 R56Y (Fab, V domains shown, Fab; also called H:KT & L:R56Y) VH: EVQLVQSGAEVKKPGESLKISCKGSGYSFTSYWIGWVRQMPGKGLEWMGIIYPGDSDTRYSPSFQGQVTISADKSISTAYLQWSSLKASDTAMYYCARRKYSYTYDYFDYWGQGTLVTVSS VL: QTVVTQEPSFSVSPGGTVTLTCGLSSGSVSTSYYPSWYQQTPGQAPRTLIYSTNTYSSGVPDRFSGSILGNKAALTITGAQADDESDYYCVLYMGSGISYVFGTGTKVTVL | – | – | 0.211 | 0.184 | 0.182 | 0.205 | 0.18 | 0.231
6 | Fab VH5-51_IGHD5-18*01>3_IGHJ4*01 G100K/G104T (H:KT) & V3-4_IGLJ1*01 S96E (Fab, V domains shown, Fab format: CH1 with His6 and Flag tags, and lambda CL, from the vectors; also called G100K/G104T & S96E) VH: EVQLVQSGAEVKKPGESLKISCKGSGYSFTSYWIGWVRQMPGKGLEWMGIIYPGDSDTRYSPSFQGQVTISADKSISTAYLQWSSLKASDTAMYYCARRKYSYTYDYFDYWGQGTLVTVSS VL: QTVVTQEPSFSVSPGGTVTLTCGLSSGSVSTSYYPSWYQQTPGQAPRTLIYSTNTRSSGVPDRFSGSILGNKAALTITGAQADDESDYYCVLYMGEGISYVFGTGTKVTVL | 0.02 | 57000 | – | – | – | – | – | –
7 | Fab VH5-51_IGHD5-18*01>3_IGHJ4*01 G100K/G104T (H:KT) & V3-4_IGLJ1*01 S96P (Fab, V domains shown, Tested as a Fab made in E. coli; The heavy chain vector (plasmid A) adds CH1 with His6 and Flag tags; the lambda light chain vector (plasmid E) adds CL; also called G100K/G104T & S96P) VH: EVQLVQSGAEVKKPGESLKISCKGSGYSFTSYWIGWVRQMPGKGLEWMGIIYPGDSDTRYSPSFQGQVTISADKSISTAYLQWSSLKASDTAMYYCARRKYSYTYDYFDYWGQGTLVTVSS VL: QTVVTQEPSFSVSPGGTVTLTCGLSSGSVSTSYYPSWYQQTPGQAPRTLIYSTNTRSSGVPDRFSGSILGNKAALTITGAQADDESDYYCVLYMGPGISYVFGTGTKVTVL | 0.03 | 54000 | – | – | – | – | – | –
8 | Fab VH5-51_IGHD5-18*01>3_IGHJ4*01 G100K/G104T (H:KT) & V3-4_IGLJ1*01 S96R (Fab, V domains shown, Fab format: CH1 with His6 and Flag tags, and lambda CL, from the vectors; also called G100K/G104T & S96R) VH: EVQLVQSGAEVKKPGESLKISCKGSGYSFTSYWIGWVRQMPGKGLEWMGIIYPGDSDTRYSPSFQGQVTISADKSISTAYLQWSSLKASDTAMYYCARRKYSYTYDYFDYWGQGTLVTVSS VL: QTVVTQEPSFSVSPGGTVTLTCGLSSGSVSTSYYPSWYQQTPGQAPRTLIYSTNTRSSGVPDRFSGSILGNKAALTITGAQADDESDYYCVLYMGRGISYVFGTGTKVTVL | 0.02 | 54300 | – | – | – | – | – | –
9 | Fab VH5-51_IGHD5-18*01>3_IGHJ4*01 G100K/G104T (H:KT) & V3-4_IGLJ1*01 S96V (Fab, V domains shown, Fab format: CH1 with His6 and Flag tags, and lambda CL, from the vectors; also called G100K/G104T & S96V) VH: EVQLVQSGAEVKKPGESLKISCKGSGYSFTSYWIGWVRQMPGKGLEWMGIIYPGDSDTRYSPSFQGQVTISADKSISTAYLQWSSLKASDTAMYYCARRKYSYTYDYFDYWGQGTLVTVSS VL: QTVVTQEPSFSVSPGGTVTLTCGLSSGSVSTSYYPSWYQQTPGQAPRTLIYSTNTRSSGVPDRFSGSILGNKAALTITGAQADDESDYYCVLYMGVGISYVFGTGTKVTVL | 0.01 | 42300 | – | – | – | – | – | –
